Patent publication US20140213531A1 (POLYPHOR, published 2014)
Bridges are numbered along the chain shown (N, C = ends). [ ]: non-standard residue; d: D form. AlloThr = allo threonine

B1: Example 3 (peptide)
peptide: FCTKSDPPICN
HELM: PEPTIDE1{F.C.T.K.S.D.P.P.I.C.N.[dP].P}$PEPTIDE1,PEPTIDE1,2:R3-10:R3|PEPTIDE1,PEPTIDE1,1:R1-13:R2$$$V2.0
SMILES: CC[C@H](C)[C@@H]1NC(=O)[C@@H]2CCCN2C(=O)[C@@H]2CCCN2C(=O)[C@H](CC(=O)O)NC(=O)[C@H](CO)NC(=O)[C@H](CCCCN)NC(=O)[C@H]([C@@H](C)O)NC(=O)[C@@H]2CSSC[C@H](NC1=O)C(=O)N[C@@H](CC(N)=O)C(=O)N1CCC[C@@H]1C(=O)N1CCC[C@H]1C(=O)N[C@@H](Cc1ccccc1)C(=O)N2
B2: Example 39 (peptide)
peptide: XCTKSDPPICD
HELM: PEPTIDE1{[O=C([C@@H](N[*:1])C1CCCCC1)[*:2]].C.T.K.S.D.P.P.I.C.D.[dP].P}$PEPTIDE1,PEPTIDE1,2:R3-10:R3|PEPTIDE1,PEPTIDE1,1:R1-13:R2$$$V2.0
SMILES: CC[C@H](C)[C@@H]1NC(=O)[C@@H]2CCCN2C(=O)[C@@H]2CCCN2C(=O)[C@H](CC(=O)O)NC(=O)[C@H](CO)NC(=O)[C@H](CCCCN)NC(=O)[C@H]([C@@H](C)O)NC(=O)[C@@H]2CSSC[C@H](NC1=O)C(=O)N[C@@H](CC(=O)O)C(=O)N1CCC[C@@H]1C(=O)N1CCC[C@H]1C(=O)N[C@@H](C1CCCCC1)C(=O)N2
B3: Example 38 (peptide)
peptide: XCTKSDPPICT
HELM: PEPTIDE1{[O=C([C@@H](N[*:1])C1CCCCC1)[*:2]].C.T.K.S.D.P.P.I.C.T.[dP].P}$PEPTIDE1,PEPTIDE1,2:R3-10:R3|PEPTIDE1,PEPTIDE1,1:R1-13:R2$$$V2.0
SMILES: CC[C@H](C)[C@@H]1NC(=O)[C@@H]2CCCN2C(=O)[C@@H]2CCCN2C(=O)[C@H](CC(=O)O)NC(=O)[C@H](CO)NC(=O)[C@H](CCCCN)NC(=O)[C@H]([C@@H](C)O)NC(=O)[C@@H]2CSSC[C@H](NC1=O)C(=O)N[C@@H]([C@@H](C)O)C(=O)N1CCC[C@@H]1C(=O)N1CCC[C@H]1C(=O)N[C@@H](C1CCCCC1)C(=O)N2
B4: Example 26 (peptide)
peptide: YCTKSDPPICY
HELM: PEPTIDE1{Y.C.T.K.S.D.P.P.I.C.Y.[dP].P}$PEPTIDE1,PEPTIDE1,2:R3-10:R3|PEPTIDE1,PEPTIDE1,1:R1-13:R2$$$V2.0
SMILES: CC[C@H](C)[C@@H]1NC(=O)[C@@H]2CCCN2C(=O)[C@@H]2CCCN2C(=O)[C@H](CC(=O)O)NC(=O)[C@H](CO)NC(=O)[C@H](CCCCN)NC(=O)[C@H]([C@@H](C)O)NC(=O)[C@@H]2CSSC[C@H](NC1=O)C(=O)N[C@@H](Cc1ccc(O)cc1)C(=O)N1CCC[C@@H]1C(=O)N1CCC[C@H]1C(=O)N[C@@H](Cc1ccc(O)cc1)C(=O)N2
B5: Example 28 (peptide)
peptide: XCTKSDPPICT
HELM: PEPTIDE1{[O=C([C@H](CCc1ccccc1)N[*:1])[*:2]].C.T.K.S.D.P.P.I.C.T.[dP].P}$PEPTIDE1,PEPTIDE1,2:R3-10:R3|PEPTIDE1,PEPTIDE1,1:R1-13:R2$$$V2.0
SMILES: CC[C@H](C)[C@@H]1NC(=O)[C@@H]2CCCN2C(=O)[C@@H]2CCCN2C(=O)[C@H](CC(=O)O)NC(=O)[C@H](CO)NC(=O)[C@H](CCCCN)NC(=O)[C@H]([C@@H](C)O)NC(=O)[C@@H]2CSSC[C@H](NC1=O)C(=O)N[C@@H]([C@@H](C)O)C(=O)N1CCC[C@@H]1C(=O)N1CCC[C@H]1C(=O)N[C@@H](CCc1ccccc1)C(=O)N2
B6: Example 31 (peptide)
peptide: XCTKSDPPICN
HELM: PEPTIDE1{[Nc1ccc(C[C@H](N[*:1])C(=O)[*:2])cc1].C.T.K.S.D.P.P.I.C.N.[dP].P}$PEPTIDE1,PEPTIDE1,2:R3-10:R3|PEPTIDE1,PEPTIDE1,1:R1-13:R2$$$V2.0
SMILES: CC[C@H](C)[C@@H]1NC(=O)[C@@H]2CCCN2C(=O)[C@@H]2CCCN2C(=O)[C@H](CC(=O)O)NC(=O)[C@H](CO)NC(=O)[C@H](CCCCN)NC(=O)[C@H]([C@@H](C)O)NC(=O)[C@@H]2CSSC[C@H](NC1=O)C(=O)N[C@@H](CC(N)=O)C(=O)N1CCC[C@@H]1C(=O)N1CCC[C@H]1C(=O)N[C@@H](Cc1ccc(N)cc1)C(=O)N2
B7: Example 2 (peptide)
peptide: FCTKSDPPICD
HELM: PEPTIDE1{F.C.T.K.S.D.P.P.I.C.D.[dP].P}$PEPTIDE1,PEPTIDE1,2:R3-10:R3|PEPTIDE1,PEPTIDE1,1:R1-13:R2$$$V2.0
SMILES: CC[C@H](C)[C@@H]1NC(=O)[C@@H]2CCCN2C(=O)[C@@H]2CCCN2C(=O)[C@H](CC(=O)O)NC(=O)[C@H](CO)NC(=O)[C@H](CCCCN)NC(=O)[C@H]([C@@H](C)O)NC(=O)[C@@H]2CSSC[C@H](NC1=O)C(=O)N[C@@H](CC(=O)O)C(=O)N1CCC[C@@H]1C(=O)N1CCC[C@H]1C(=O)N[C@@H](Cc1ccccc1)C(=O)N2

What follows are binders tested against Trypsin, Iodination grade, from human pancreas (human, UniProt P07477 24-247) (assay: cell-based or functional assay).

Binder	% inhibition at 100 µM [%]
B1	92
cyclo(FCTK[AlloThr]DPPICS[dP]P) (disulfide 2-10) [Example 24]	97
B2	94
B3	96
B4	84
B5	95
B6	98
B7	92

Each binder was assayed against T1, Elastase from human neutrophils (human, UniProt P08246 30-247, limits assumed) (assay: cell-based or functional assay).
T1 sequence (looked up): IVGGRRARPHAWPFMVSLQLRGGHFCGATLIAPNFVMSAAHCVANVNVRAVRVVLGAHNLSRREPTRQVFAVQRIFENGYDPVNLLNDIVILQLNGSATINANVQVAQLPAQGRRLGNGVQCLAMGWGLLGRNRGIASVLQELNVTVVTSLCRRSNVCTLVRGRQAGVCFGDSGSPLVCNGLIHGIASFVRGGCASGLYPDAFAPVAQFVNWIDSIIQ

Binder	IC50 [nmol]
B1	> 100000
cyclo(FCTK[AlloThr]DPPICS[dP]P) (disulfide 2-10) [Example 24]	> 100000
B2	> 100000
B3	> 100000
B4	> 100000
B5	> 100000
B6	> 100000
B7	> 100000

Each binder was assayed against Chymotrypsin, from human pancreas (human, UniProt P17538 19-263) (assay: cell-based or functional assay).
Chain of Chymotrypsin, from human pancreas (P17538 19-263): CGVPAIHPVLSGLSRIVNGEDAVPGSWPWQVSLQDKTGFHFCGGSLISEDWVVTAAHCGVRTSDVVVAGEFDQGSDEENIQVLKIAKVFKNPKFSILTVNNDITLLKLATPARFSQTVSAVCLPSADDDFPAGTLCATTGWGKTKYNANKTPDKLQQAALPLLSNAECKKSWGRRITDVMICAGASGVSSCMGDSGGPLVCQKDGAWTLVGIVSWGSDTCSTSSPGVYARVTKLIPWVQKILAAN

Binder	% inhibition at 100 µM [%]
B1	0
cyclo(FCTK[AlloThr]DPPICS[dP]P) (disulfide 2-10) [Example 24]	1
B2	7
B3	4
B4	2.2
B5	32
B6	15
B7	2.9

Each binder was assayed against Tryptase, from human lung (human, UniProt Q15661 31-275, limits assumed) (assay: cell-based or functional assay).
Chain of Tryptase, from human lung (Q15661 31-275 limits assumed): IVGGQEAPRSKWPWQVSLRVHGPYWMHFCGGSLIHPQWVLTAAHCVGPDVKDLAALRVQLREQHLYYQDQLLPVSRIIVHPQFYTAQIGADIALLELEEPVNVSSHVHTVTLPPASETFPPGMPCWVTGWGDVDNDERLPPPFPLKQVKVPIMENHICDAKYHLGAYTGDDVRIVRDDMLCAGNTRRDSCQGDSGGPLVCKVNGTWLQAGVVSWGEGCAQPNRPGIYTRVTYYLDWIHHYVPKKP

Binder	% inhibition at 100 µM [%]
B1	68
cyclo(FCTK[AlloThr]DPPICS[dP]P) (disulfide 2-10) [Example 24]	0
B2	34
B3	11
B4	66.4
B5	0
B6	76
B7	39.6

The binders below were run against T2, Chymase, from human skin (human, UniProt P23946 22-247) (assay: cell-based or functional assay).
T2 sequence (looked up): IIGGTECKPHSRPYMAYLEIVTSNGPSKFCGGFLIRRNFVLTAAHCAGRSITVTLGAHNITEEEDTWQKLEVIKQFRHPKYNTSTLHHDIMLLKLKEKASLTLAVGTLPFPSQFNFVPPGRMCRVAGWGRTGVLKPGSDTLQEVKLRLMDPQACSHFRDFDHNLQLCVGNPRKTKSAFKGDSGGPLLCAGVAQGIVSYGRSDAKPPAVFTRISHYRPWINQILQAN

Binder	% inhibition at 100 µM [%]
B1	1
cyclo(FCTK[AlloThr]DPPICS[dP]P) (disulfide 2-10) [Example 24]	1.2
B2	0
B3	1
B4	0
B5	0
B6	12
B7	0

Each binder was assayed against Coagulation Factor Xa, from human plasma (human, UniProt P00742 41-488, limits assumed) (assay: cell-based or functional assay).
Chain of Coagulation Factor Xa, from human plasma (P00742 41-488 limits assumed): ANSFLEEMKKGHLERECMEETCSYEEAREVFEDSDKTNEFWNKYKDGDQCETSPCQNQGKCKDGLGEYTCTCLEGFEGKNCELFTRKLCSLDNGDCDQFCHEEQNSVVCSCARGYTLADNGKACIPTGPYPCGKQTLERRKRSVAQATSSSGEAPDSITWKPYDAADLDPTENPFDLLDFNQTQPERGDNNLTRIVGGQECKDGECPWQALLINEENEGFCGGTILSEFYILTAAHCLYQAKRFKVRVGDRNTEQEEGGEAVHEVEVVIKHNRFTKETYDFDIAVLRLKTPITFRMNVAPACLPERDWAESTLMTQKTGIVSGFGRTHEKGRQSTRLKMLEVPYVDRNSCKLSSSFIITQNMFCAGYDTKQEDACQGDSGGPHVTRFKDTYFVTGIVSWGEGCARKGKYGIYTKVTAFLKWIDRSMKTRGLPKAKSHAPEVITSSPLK

Binder	% inhibition at 100 µM [%]
B1	4
cyclo(FCTK[AlloThr]DPPICS[dP]P) (disulfide 2-10) [Example 24]	30
B2	0
B3	0
B4	6
B5	6
B6	8
B7	5.3

Each binder was assayed against Urokinase from human urine (human, UniProt P00749 21-431, limits assumed) (assay: cell-based or functional assay).

Binder	% inhibition at 100 µM [%]
B1	4
cyclo(FCTK[AlloThr]DPPICS[dP]P) (disulfide 2-10) [Example 24]	5.1
B2	2
B3	1
B4	3.1
B5	1
B6	15
B7	0.9

What follows are binders tested against Thrombin, from Human Plasma, high activity (human, UniProt P00734 328-622) (assay: cell-based or functional assay).

Binder	% inhibition at 100 µM [%]
B1	0
cyclo(FCTK[AlloThr]DPPICS[dP]P) (disulfide 2-10) [Example 24]	3.5
B2	2
B3	0
B4	3
B5	12
B6	10
B7	9.2

These binders were tested against T3, CathepsinG, from human neutrophils (human, UniProt P08311 21-244) (assay: cell-based or functional assay).
T3 sequence (looked up): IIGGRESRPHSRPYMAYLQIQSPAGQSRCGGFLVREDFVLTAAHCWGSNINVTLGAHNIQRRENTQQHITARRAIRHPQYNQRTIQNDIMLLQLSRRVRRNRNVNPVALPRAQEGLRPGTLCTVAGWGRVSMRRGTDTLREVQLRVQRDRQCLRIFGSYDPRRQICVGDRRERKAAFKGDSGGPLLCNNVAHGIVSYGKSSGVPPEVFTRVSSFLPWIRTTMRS

Binder	IC50 [nmol]
B1	51
cyclo(FCTK[AlloThr]DPPICS[dP]P) (disulfide 2-10) [Example 24]	71
B2	38
B3	31
B4	49
B5	39
B6	34
B7	84
